Test: label from the status in PepcDB records

Sequence: MHTQEALFVRLALDAWNTQSSRTDKLIQSLSNEALAVETAPGRNSGTYLLGHLTAVHDAMLPLLELGDTLYPQLAPVFIQNPDKSGLEKPEINDLRLYWSLVQERLANQFNQLQPADWFNKHAAISREDFLKEPHRNKLSVLINRTNHMAYHLGQLAYLKK
- protein production: not failed

Sequence: MHVFYSEERRGNLLILREGEVKHFRVRRIEKDEEFGVIHEGKIYVCKVRREDKREISCEIVEELETKLPPKDITLYQSVTVDLKTMDTIVRQATELGVLTFVPIISERSFQKEEAILKKTEKWKRIVIEAMKQSRRPIPMEIKKPVRLSDLIPESEENIILDNFYEGVKPKDVNLEAKTYSVVVGPEGGFSKRESQILREKGFKSVLLEPYTLRTETAVVSIVSILMNF
- protein production: not failed

Sequence: MHVSKVFPSLRDTLPRDLMASVVVFLVALPLCMGIAIASGMPPAKGLLTGIVGGLVVGFLAGSPLQVSGPAAGLAVLVFELVRTYGVAMLGPILLLAGAIQLLAGRLRLGCWFRVTSPAVVYGMLAGIGILIVLSQLHVMLDLAPKASGLDNLLAFPQAAFAALGSLGMDSGLDAALLGLGTIAVMWGWDKLRPQRLRFLPGALLGVSLATLASLWLALDVRRVEVPANLGEAIVWLRPADLLALADPSLLLAAVVVAFIASAETLLSAAAVDRLHDGPRSDMDRELSAQGVGNMLCGLLGALPMTGVIVRSSANVNAGARTRASAIFHGLWLLAFVLLLGSLLRQIPVASLAGVLVYTGVKLVDFKALGNLSRYGRMPMLVYAATALAIVFTDLLTGVLVGFALTLLKLVLKAARLKIALRYTGEHEAELRLSGAATFLKVPALSRVLDEVKPGTTLHVPMDNLSYVDHACMELLEDWGRMAPVQGSRLVIEPRALKRRLEGRLRGSVGLGGARNGGAVSPG
- protein production: failed

Sequence: MIAAAWIAVTAALYAAARALHRRFPRPWLTPLLVVPGALAAVLLAARVPYPGYMRGGRLLVDLLGPATVAFALPLHRHAGLLRRHAAELCAGILAGCAVAVGSSFLLARALGLGRPLALSLAPRSITTPFAMQVAGDLGGVPALAAVFVILTAVVGLVVGQLLLRWLPLRSAVARGALFGMGAHAAGTAQAMELGRVEGAVAGVVMIVAGLGVLVATPLLRLAL
- protein production: failed

Sequence: MIAFQALQAISPIDGRYRNKVEVLSRYFSEGSLIRYRVKVEVEYFIALCNELPSLKDVCPPSLEEELRRIYQDFSEKDAVRVKEIEAVTNHDVKAVEYFLKERFEAMGIRDAKEFIHFGLTSQDVNNTAFPMMIREAMTEVYLPALQELVEQLHAYALQWKDVPMLAKTHGQPASPTRLGKEIEVFVYRLRKQIDLLLEVPHSAKFGGATGNFNAHHVAYPDHDWSDFGRRFVTSLGLEREELTTQISNYDNMAALFDACCRINVILIDLCRDFWQYISMEYFKQKIKAGEVGSSAMPHKVNPIDYENAEGNLGIANAIFEHLSRKLPISRLQRDLTDSTVLRNVGTPLAHSLIAVTSIAKGLGKLLLNEAALDRDLQNNYAVVAEAIQTILRREGYPNPYETLKALTRTNETVTAESIASFIEALDIDETVKEEMRRISPSNYVGI
- protein production: failed

Sequence: MIAISSLLGLVVRSFYFLLPDYRAADTWFHASKVKMIISTGTVYFSHVPGYFSAQIIKYPPGYHALIALLSGFKGENIIYGMNSLRIFEILYLPALAYLVGREIRREIGIFAALLTNFSALYYYFVQYALLPAFTNYMIFLLSVYFLEVAMRDRGIKISIMLGITSGIMAVVHPYQYILFQATAFFTTILSKNRKVFLTQLILSASVFLVFTPFSTEYAVKGILMNPRFSNKDNPNFLISILRYSFVDNGQILFGLSLILALILSLMRGGSIEKGLSLSFLLIIFMMLDKTYLNIRIPYLSAVWNSERAFMLTTPLIPILEGIGLNYIFKVKKELAAIFLVVGMMISYPYLRIEHLASESSYLLDPEVVDFIKEVSRIAGNETVMTACEFDSGRWIPILTETPIVCYSKNISEARYLYVDTRGAGEIEVYPINIVNFLDRRVVLFRDGLWLLDLNKHGKPTGDVLSYYHTNGTISYIKDTKWFVYGWVNKNYATMKLRLKGFPYAIMIVNTSSILFSTSESFDRIEIRISGKKGRALEIYLDGEFIKRYEFKTEYGDERIVLKVRVDPGMHYLILYSPNTTYKIPIGVKEIMLKREGP
- protein production: failed

Sequence: MIAMILVHPHIFWLSLGGLLLAAEMLGGNGYLLWSGVAAVITGLTVWLLPLGWEWQGVLFAALTLLAAWLWWRWLARRVREQKPTDSRLNQRGQQLVGRRFMLDAALVNGRGHMRVGDSSWPVCADEDLRAGTHVEVIAVEGITLRIRAV
- protein production: failed

Sequence: MIATLRSYLSADKRGLVGPAFLFLSLLASISDPFGGYGMTFLRRFLFWVLVLGVAGGIAFLSHRMVERHLSGAPLLGKDLLIVLLVTLSFTPSLWVLIFLFAAPSTGTAPDMWSMARYGTIFASGLIVLRRGVFGQSVPEEESLQPRIYKRLPEGFSEQILRLTVRDHSVDVVTDKGVHTIRSRFGDAIDEMVPISGHCTHRSHWVTDTAIESVERSGGKIHLRLSNGDLIPVSRKYRPALEEAGIV
- protein production: failed

Sequence: MICTPKVGLNNQLTKVQFFMTKYNFLFKQQVIEFYLQNDKNSSLTRRHFQLAETTLERWINQFNHSGINGLALLGKKRNYSPEFKLNVIQAVKNGKFSAEAACLHFGIANSGVVSQWLQAFEKQGINGLIPKPKGRPTMKLQYPKMPPKPKTREEELELENLRLRAENAILKKLQELNQQKMQKKPLSLEHHHHHH
- protein production: failed

Sequence: MIDFLDVQKETPRIRIAIDRVGVKNIKFPLKIHDDFAFLTLNLFVDVPADRKGADMSRAVESIQKVINAGSYGERIGDIGIAICDEALSRFNYSEKAQCEVNIQYYRRSGERYLEYRMYVETAKDRKQIMKNEIGISYVTMTACPCAMETTRALISMDNPDISDAISAIPTITHNQRNVTKLTVDNRSKMITVWDLADVMERVQGKPLDSLLKRVEEGRLVYSAHRNPKFVEDVVREIAYEAARVLGVPDEATIKVSSESDESIHPHNAYAEIDTTAGELRKLHLH
- protein production: not failed

Sequence: MIDFNDIPQPEAQDRQARREEIRAALLARLESVLFALLPAGKKRGGKFLIGDVLGSPGDSLEVVLDGEKAGLWTDRATGDGGDIFGLIAAHLGADVHADFPRVLDVAADLVGRAHPAPPRKARSAPPVDGLGPATAKWDYFDPAGKLIAVVYRYDPPGRKKEFRPWDARRRKMAPPEPRPLYNQPGLVAADTVVLVEGEKCAQALIDIGVAATTAMHGANAPVDKTDWSPLAGKAVLIWPDRDKPGWEYAMAAAQAALAVGAMSCDVLLPPDDRSEGWDAADAVAEGFDVAGFLAFGPRMSIKPASVTPTQEPSVWATDDALALAFTSRYAEDWRYCAAWGKWLVWDGRRWQADETLLVHHLIRAICREAALKADSHRLAAKLAASSTVGGVERLARTDRRHASTSEEWDADLFALNTPSGIVDLKTGRIKPHDRRERMTKLATATPHGDCARWRAFLEDITGGDTALQAYLQRMVGYCLTGATSAHALFFLYGTGANGKSVFVNTLATILGDYATSAPMDTFMEARGDRHPTDLAGLRGARFVSSIETEQGRRWNESKVKAITGGDKVSARFMRQDFFEYLPQFKLVIAGNHKPAIRNVDEAMKRRLHLIPFTVTIPPEKRDGQLTEKLLAERDGILAWAVEGCLAWQRDGLNPPASVVSATEEYFDEEDAIGDFLDEEAQRFEQARVAVADVFQRWQEWATRRGEYVGTSRWLAQQLANRGFGRARLHGGVKGLAGLSLKPRDYGTRLPYRDD
- protein production: failed

Sequence: MIDGNSIIVSSPEVAFPIAVRYAWADNPICNLYNGVNLPASPFRTDDWQGILMVINRYSCFDLPSEIDVTHKKITMNKLIYLVIFSFLSTSIYAQMKDLVQYVNTLQGTDSHFGLSYGNTYPTTGMPYAMHTWSAQTGKNGEGWKYQYAVDNIRGFCQSHQCSPWMSDYAVYSFMPMVGKLVVNQEMRATKFSHDNEIAKPHYYKVMLDNGITTEMAPTTRGVHLRFSYPSTEDAYLVIDGYTDMSEIKIDPAKRQISGWVNNQRFVNNSKTFRSYFVVQFDKAFEDYGMWENQKDEIYPKKLEGEGKGYGAYIKFKKGSKVQAKAASSYISAEQAVITLNDELGKDKNLEATKIRGHKTWNELLNRIQVEGGTDEQMKTFYSCLFRANLFSRKFYERKANGEPYYYSPYDGKVYDGYMYTDNGFWDTFRSQFPLTNILHPTMQGRYMNALLAAQEQCGWLPSWSAPGETGGMLGNHSISLLADAWAKGIRTFDPEKALKAYAHEAMNKGPWGGANGRGFWKEYFELGYVPYPESMGSSAQTMEYAYDDFCGYQLAKMTGNKHYQEVFARQMYNYKNVFDPSIGFMRGKGVDGKWQEPFDPLEWGGPFCEGNAWHYTWSVFHDVEGLIDLFGSDQRFTTKMDSVFTLPSTIKPGTYGGVIHEMKEMELSGMGQYAHGNQPIQHMPYLYSYAGQPWKTQYWVRQIVERLYNSTERGYPGDEDQGGMSSWYILSSLGIYAVCPGTDEYVIGSPLFKKATITMENGNKFVIEANNNSKENLYIQSATLNGRVLDKNFIRYDDIADGGIIRFEMGSQPNKERCTSKYAAPFSLSKE
- protein production: failed

Sequence: MIDHRPTSWSRLCTALTSGASCTIGGQAVMEGVMMRNGDRLAIAMRRPDGEIVAESRPWFSLTRSAWLKRPFVRGFPILVETLVNGIKALNRSAEQAVEGETGEELKPWQLAATLAVSVAMALGLFVVVPHLFSIGMKLLGLGGDVEGLSFHMWDGFFKFAVFIGYIVAISFVPDIRRVFQYHGAEHKVIRAFEAAGDVTPDTAMHHSRLHPRCGTTFLLFVLSISIILHAVLVPLLMLVWTPSGAFAKHGVTVLFKLLLMIPISALAYETIRYAARLGEGLTGTLLRAPGMLLQKLTTGEPDREQLEVAIVALREALGDDAPQSVRAPAYRHLE
- protein production: failed

Sequence: MIDKREVLAPNRRSRQREEIVAEEKRYEVYFQPLLSGVEVKKSNEIKIVLPQQEYNRIEQGAKGTLRLQGTRYISFVPNSVAKLEHHHHHH
- protein production: not failed

Sequence: MIDLAVLPIYLTAVIALLLLPGPDMLLIASSSMSYGRKVGLFASLGNATSGLILTLLAAMGVSTLIAMSPVALKVLHLLGGAYLLKMGWDCLRAEASSAPELDQKNKMASTYYQRALMSNLLNPKALVFFVMFLPQFVSSNITASSGEQMLALGLLLNVLGLLFNLLLVALAGTLGKGLLENEKFRTYQHKLMGLVFVILALWMLSSFVL
- protein production: failed

Sequence: MIDMEQDNRNQINGENISNASAGGTQPEQNTQSSQNMHPEQTGQGTQQDSLYHYSYMNNKGDARFDRPAGETSQQRMGAQTQNMRETANVQGGTQNTAYSGFQRNVNGMEAWYDSQRMNAGYQNPENNVGGYGQGSQSVPHKTETSHKHEKQPKPKKNSGKKSGVGKKVAGVVAAAVVFGLVAGVVFQGVRYGSDKMLNKNSATTEASADATTENNAPQLKQASSDATNTVYDVATVAQKVMPSIVSITGTYVTTYDYWFNSYQQESTGAGSGIIIGKDDQYLYLATNYHVVQNAKSLSVTFVNDKSADATVKGYVENNDIAVVTVKLADISDDTLNEIKEIQVGSSDDLSVGDPCVAIGNALGYGQSVTVGYISALNREISASDETVKVLQTDAAINPGNSGGALVNMQGELIGINTAKYSDTSVEGMGYALPISDIQDIINDLIAGKKVASDGTASGQAYLGISAQTITSQYSQLLNMPEGVYISSVEQGSAAEECGLQSGDIICSLDGEDIADMDTFHDRIVACKPGDKVTIVYYRNNNGNYEKQTTTATLQEKQ
- protein production: failed

Sequence: MIDPRPVGYILGLLVATLGALMLVPMALDLAAGDRHWLSFAETATITTVAGSMLALACANGRGQGTGLSLQQSFLLTTGAWVLLPVFGALPFMMGRPDASFTDAVFEAMSGFTTTGTTVFVGLDALPLGTNLWRGMLQWLGGLGIVIVAMIFLPVMKVGGMQFFRSEGFDTLGKILPRALDISTALIQIYLVLTMACVMTFLALGIPLFEAVVHALTTVSTGGFSSSDRSFGLFQGPAEYACAFFMVLASLPFVRFVQLAQGTFLPLWRDPQVRAYLRWNGYAIGLIVAYEVVTRNAPVLPTLRETTFNVISTFSGTGFSSVDLGLWGTFPFVLLIVVGLIGGCTSSTGCSVKVFRYLILLEAIKVQIRRLQSPSAVIFVDYEGRRVGEDVINSVILFFTMFILSFGVLAVLLSLTGLQTKTAITAAWTAIANVGPAFGPEVSATGAVDRFPAVAKWLMIGGMLVGRLELLSVFVLLTPRFWRS
- protein production: failed

Reference: a protein production outcome set (Wang et al. 2014)
